Assay results taken from patent publication US20020019514A1 (Harvard, published 2002).

Molecular target: T1, CIITA (expressed from the CIITA expression vector pCMV.CIITA) (UniProt P33076 1-1130)
T1 sequence (looked up): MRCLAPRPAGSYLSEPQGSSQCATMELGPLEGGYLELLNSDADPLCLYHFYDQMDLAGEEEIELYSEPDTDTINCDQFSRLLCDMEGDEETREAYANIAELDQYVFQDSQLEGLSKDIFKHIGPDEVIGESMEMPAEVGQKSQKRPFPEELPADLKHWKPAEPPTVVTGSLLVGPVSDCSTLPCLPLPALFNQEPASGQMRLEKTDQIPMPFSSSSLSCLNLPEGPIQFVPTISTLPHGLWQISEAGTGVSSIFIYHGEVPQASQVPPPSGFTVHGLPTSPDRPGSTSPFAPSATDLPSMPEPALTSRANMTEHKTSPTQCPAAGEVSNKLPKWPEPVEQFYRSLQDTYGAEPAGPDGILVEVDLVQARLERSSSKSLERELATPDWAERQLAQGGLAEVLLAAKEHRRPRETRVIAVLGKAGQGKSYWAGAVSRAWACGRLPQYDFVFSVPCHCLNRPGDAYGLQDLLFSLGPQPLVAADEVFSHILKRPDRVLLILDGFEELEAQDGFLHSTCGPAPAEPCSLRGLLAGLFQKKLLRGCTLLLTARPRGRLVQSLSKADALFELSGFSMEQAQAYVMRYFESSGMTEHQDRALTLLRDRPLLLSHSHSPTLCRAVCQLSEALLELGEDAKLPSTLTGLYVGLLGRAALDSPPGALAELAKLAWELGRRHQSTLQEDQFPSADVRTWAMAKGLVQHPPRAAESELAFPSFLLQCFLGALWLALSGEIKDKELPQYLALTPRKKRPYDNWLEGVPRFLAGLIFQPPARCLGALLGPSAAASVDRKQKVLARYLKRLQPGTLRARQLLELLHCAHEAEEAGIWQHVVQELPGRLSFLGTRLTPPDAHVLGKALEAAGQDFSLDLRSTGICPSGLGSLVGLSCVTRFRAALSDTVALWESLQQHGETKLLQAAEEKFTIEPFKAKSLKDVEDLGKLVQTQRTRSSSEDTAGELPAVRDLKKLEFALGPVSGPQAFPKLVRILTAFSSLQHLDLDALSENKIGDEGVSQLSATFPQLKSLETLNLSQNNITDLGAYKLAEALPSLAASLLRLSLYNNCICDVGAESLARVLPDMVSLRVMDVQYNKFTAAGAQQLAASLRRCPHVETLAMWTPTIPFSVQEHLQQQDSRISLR
Assay: cell-based or functional assay

CIITA-mediated DRα-CAT expression (DRα promoter CAT reporter in cotransfected cells): ~30 fold
B1: CIITA-Interacting Protein 104 (CIP104) (other)
chain: MKMLDESIRKEEEQQQHEAGVAPQPPLKEPFASLQSPFPTDTAPTTTAPAVAVTTTTTTTTTTTATQEEEKKPPPALPPPPPLAKFPPPSQPQPPPPPPPSPASLLKSLASVLEGQKYCYRGTGAAVSTRPGPLPTTQYSPGPPSGATALPPTSAAPSAQGSPQPSASSSSQFSTSGGPWARERRAGEEPVPGPMTPTQPPPPLSLPPARSESEVLEEISRACETLVERVGRSATDPADPVDTAEPADSGTERLLPPAQAKEEAGGVAAVSGSCKRRQKEHQKEHRRHRRACKDSVGRRPREGRAKAKAKVPKEKSRRVLGNLDLQSEEIQGREKSRPDLGGASKAKPPTAPAPPSAPAPSAQPTPPSASVPGKKAREEAPGPPGVSRADMLKLRSLSEGPPKELKIRLIKVESGDKETFIASEVEERRLRMADLTISHCAADVVRASRNAKVKGKFRESYLSPAQSVKPKINTEEKLPREKLNPPTPSIYLESKRDAFSPVLLQFCTDPRNPITVIRGLAGSLRLNLGLFSTKTLVEASGEHTVEVRTQVQQPSDENWDLTGTRQIWPCESSRSHTTIAKYAQYQASSFQESLQEEKESEDEESEEPDSTTGTPPSSAPDPKNHHIIKFGTNIDLSDAKRWKPQLQELLKLPAFMRVTSTGNMLSHVGHTILGMNTVQLYMKVPGSRTPGHQENNNFWSVNINIGPGDCEWFAVHEHYWETIRAFCDRHGVDYLTGSWWPILDDLYASNIPVYRFVQRPGDLVWINAGTVHWVQATGWCNNIAWNVGPLTAYQYQLALERYEWNEVKNVKSIVPMIHVSWNVARTVKISDPDLFKMIKFCLLQSMKHCQVQRESLVRAGKKIAYQGRVKDEPAYYCNDCDVEVFNILFVTSENGSRNTYLVHCEGCARRRSAGLQGVVVLEQYRTEELAQAYDAFTLAPASTSR
